Ends that are not written are not given here.

For assay [1], the target named is HIV-1 major capsid protein (p24) (HIV-1) (UniProt P04591).
Assay [2] concerns the target capsid protein of HIV-2 (HIV-2).
The target in assay [3] is capsid protein of SIV (SIV).
For assay [4], the target named is HIV-1 major capsid protein (p24) (HIV-1) (UniProt P04591). This is another data set of the same source.
Assay [5] shares this target. The source holds these as a separate data set.
Assay [6] has the same target. The source holds these as a separate data set.
The target is the same in assay [7]. The source holds these as a separate data set.
Assay [8] has the same target. In words: equilibrium dialysis of 10 µM recombinant protein against 27.5 µM 14C-GPG-NH2, scintillation counting; ratio to the dialysis buffer. (In general: In equilibrium dialysis only unbound substance equilibrates across the membrane.)
The target in assay [9] is T1, HIV-1 major capsid protein (p24) (HIV-1, UniProt P04591). In words: cell-based or functional assay.
In assay [10] the target is T1, HIV-1 major capsid protein (p24). In words: cell-based or functional assay. The source holds these as a separate data set.

Gly-Pro-Gly-NH2 (peptide) came in with a Day 10 RT, HIV-1 (OD of reverse transcriptase activity in the supernatant of infected H9 cells); HIV-1 syncytia in assay [1] of 0.074 OD. The molecule also yielded a Day 10 RT, HIV-2 (OD of reverse transcriptase activity in the supernatant of infected H9 cells) in assay [2] of 0.145 OD. This molecule also had a Day 10 RT, SIV (OD of reverse transcriptase activity in the supernatant of infected H9 cells) in [3] of 0.103 OD. The same molecule displayed a p24 antigen in the supernatant of HIV-1 infected H9 cells, day 7, reduction (%) in assay [4] of 100%. The molecule further gave a p24 (pg/ml) in the supernatant of HIV-1 infected HUT78 cells, day 7, reduction (%) in [5] of 97%. The HIV-1 p24 (pg/ml) in the supernatant of PBMC infected with AZT- or Ritonavir-resistant HIV-1 isolates, 14 days post infection, 100 µM peptide in assay [6] was under 500 pg/mL. In addition, in assay [7], the p24 pg/ml in the supernatant of MT-2 cells infected with HIV-1 Bru wild type or the V3 loop GPG-deleted mutants mp8 and mp10, reduction % came to 93%. Besides, the times buffer in [8] stood at 7.55 times buffer.

Regarding Gly-Lys-Gly-NH2 (peptide), the Day 10 RT, HIV-2 (OD of reverse transcriptase activity in the supernatant of infected H9 cells) in assay [2] was 0.147 OD. The molecule also registered a Day 10 RT, SIV (OD of reverse transcriptase activity in the supernatant of infected H9 cells) in assay [3] of 0.099 OD.

For the molecule Cys-Gln-Gly-NH2 (peptide), the Day 10 RT, HIV-2 (OD of reverse transcriptase activity in the supernatant of infected H9 cells) in assay [2] was 0.296 OD. In assay [3], the Day 10 RT, SIV (OD of reverse transcriptase activity in the supernatant of infected H9 cells) worked out at 0.11 OD.

For Gly-Ala-Thr-NH2 [GAT-NH2], the “Day 10 RT, HIV-1 (OD of reverse transcriptase activity in the supernatant of infected H9 cells); HIV-1 syncytia” value (shortened to “Day 10 RT … HIV-1 syncytia”) in assay [9] amounted to 2.8 OD.

Consider Lys-Gln-Gly-NH2 [Lys-Gln-Gly-NH2], for which the “p24 (pg/ml) in the supernatant of HIV-1 infected HUT78 cells, day 7, 100 µM peptide, reduction (%)” value (“p24 (pg/ml) … 100 µM peptide, reduction (%)” below) in [10] was 99%.

With Ser-Pro-Thr-NH2 [Ser-Pro-Thr-NH2], the “p24 (pg/ml) … 100 µM peptide, reduction (%)” value in [10] is 25%.

Regarding Ser-Leu-Gly-NH2 [Ser-Leu-Gly-NH2], in assay [10], the “p24 (pg/ml) … 100 µM peptide, reduction (%)” value amounted to 99%.

In the case of Ala-Arg-Val-NH2 [ARV-NH2], in assay [9], the “Day 10 RT … HIV-1 syncytia” value turned out to be 2.83 OD.

As to Ala-Cys-Gln-NH2 [ACQ-NH2], the “Day 10 RT … HIV-1 syncytia” value in [9] came to 2.83 OD.

On to Leu-Lys-Ala-NH2 [LKA-NH2], for which the “Day 10 RT … HIV-1 syncytia” value in assay [9] turned out to be 2.99 OD.

On to His-Lys-Ala-NH2 [HKA-NH2], for which the “Day 10 RT … HIV-1 syncytia” value in [9] was 2.79 OD.

On to Lys-Ala-Arg-NH2 [KAR-NH2], for which the “Day 10 RT … HIV-1 syncytia” value in assay [9] worked out at 2.93 OD.

Ala-Leu-Gly-NH2 [Ala-Leu-Gly-NH2]: in assay [10], the “p24 (pg/ml) … 100 µM peptide, reduction (%)” value was determined as 100%.

As for Lys-Ala-Leu-NH2 [KAL-NH2], in [9], the “Day 10 RT … HIV-1 syncytia” value was found to be 2.79 OD.

As for Ala-Ser-Gly-NH2 [Ala-Ser-Gly-NH2], the “p24 (pg/ml) … 100 µM peptide, reduction (%)” value in assay [10] came out at 25%.

In the case of Arg-Gln-Gly-NH2 [Arg-Gln-Gly-NH2], the “p24 (pg/ml) … 100 µM peptide, reduction (%)” value in assay [10] was 99%.

On to Gly-His-Lys-NH2 [GHK-NH2], for which the “Day 10 RT … HIV-1 syncytia” value in assay [9] came to 3.01 OD.

As for Gly-Pro-Gln-NH2 [GPQ-NH2], the “Day 10 RT … HIV-1 syncytia” value in assay [9] amounted to 2.85 OD.

Turning to Gly-Val-Gly-NH2 [Gly-Val-Gly-NH2], the “p24 (pg/ml) … 100 µM peptide, reduction (%)” value in [10] was determined as 25%.

Take Ile-Leu-Lys-NH2 [ILK-NH2]: in [9], the “Day 10 RT … HIV-1 syncytia” value was found to be 2.95 OD.

Turning to Val-Gly-Gly-NH2 [Val-Gly-Gly-NH2], the “p24 (pg/ml) … 100 µM peptide, reduction (%)” value in assay [10] is 50%.
